Data published in US6730296B1.

Biological target: fusin/CXCR4 receptor (human) (UniProt P61073)

anti-fusin antibody staining of Jurkat cells after 3-hour incubation at 37 degrees C, Median Channel (Median Channel): 22.3
Substance: purified human SDF-1β chemokine, prepared in E. coli and containing an N-terminal methionine residue (from UniProt P48061) (ligand)
